Target: Rabbit skeletal muscle actin (rabbit, UniProt P68135 1-377)
Assay: co-sedimentation

- binding result: binds
B1: FRL2 FH1-FH2 I649A (amino acids 447-945 of the mouse protein) (domain or fragment)
chain: TSNQVHTLRRLIKEKEEAFQRRCHLEPSARGLESMGGEALARVGPTELTEGIPPSDLDLLAPAPPTEETLPLPPPPAPPLPPPPPPLPDKCPPAPPLPGAAPSVVLTVGLSAIRIKKPIKTKFRLPVFNWTALKPNQINGTVFSELDDEKILEDLDLDRFEELFKTKAQGPALDLICSKNKTAQKAASKVTLLEANRAKNLAATLRKAGRSAEEICRAIHTFDLQTLPVDFVECLMRFLPTEAEVKLLRQYERERQPLEELAAEDRFMLLFSKVERLTQRMAGMAFLGNFQDNLQMLTPQLNAIIAASASVKSSQKLKQMLEIILALGNYMNSSKRGAVYGFKLQSLDLLLDTKSTDRKMTLLHFIALTVKEKYPELANFWQELHFVEKAAAVSLENVLLDVKELGRGMELIRRECSIHDNSVLRNFLSTNEGKLDKLQRDAKTAEEAYNAVVRYFGESPKTTPPSVFFPVFVRFIRSYKEAEQENEARKKQEEVMREK

Source: article PMC2991502 (Cytoskeleton (Hoboken, N.J.), 2010)
